Measurements: patent US20200140562A1 (Innovent, published 2020)
Each block holds one binder with its values, some of them ahead of it.

Legend:
[1] = target: T1, human OX40 on cells (CHO-hOX40, 293HEK-hOX40, Jurkat-hOX40, activated primary CD4+ T cells) (human, UniProt P43489 29-277); test: flow cytometry, CHO-hOX40
T1 construct: whole, on cells; The cell type is told in each assay; also called CHO-OX40
T1 sequence (looked up): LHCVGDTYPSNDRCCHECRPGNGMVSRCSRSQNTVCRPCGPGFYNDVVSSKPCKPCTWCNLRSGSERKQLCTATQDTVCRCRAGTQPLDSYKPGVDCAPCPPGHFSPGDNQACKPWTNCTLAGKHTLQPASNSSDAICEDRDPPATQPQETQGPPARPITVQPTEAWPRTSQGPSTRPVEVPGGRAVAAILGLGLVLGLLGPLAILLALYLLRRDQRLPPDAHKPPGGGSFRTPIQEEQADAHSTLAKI

[2] = target: T1, human OX40 on cells (CHO-hOX40, …); test: flow cytometry, CHO-hOX40, 25 nM
[3] = target: T1, human OX40 on cells (CHO-hOX40, …); test: flow cytometry, CHO-hOX40, 50 nM
[4] = target: T1, human OX40 on cells (CHO-hOX40, …); test: flow cytometry, CHO-hOX40, 100 nM
[5] = target: T1, human OX40 on cells (CHO-hOX40, …); test: flow cytometry, CHO-hOX40, 200 nM
[6] = target: T1, human OX40 on cells (CHO-hOX40, …); test: flow cytometry, CHO-hOX40, 12.5 nM
[7] = target: T1, human OX40 on cells (CHO-hOX40, …); test: flow cytometry, CHO-hOX40, 6.25 nM
[8] = target: T1, human OX40 on cells (CHO-hOX40, …); test: flow cytometry, CHO-hOX40, 3.125 nM
[9] = target: T1, human OX40 on cells (CHO-hOX40, …); test: flow cytometry, CHO-hOX40, 1.5625 nM
[10] = target: T1, human OX40 on cells (CHO-hOX40, …); test: flow cytometry, CHO-hOX40, 0.78125 nM
[11] = target: T1, human OX40 on cells (CHO-hOX40, …); test: flow cytometry, CHO-hOX40, 0.390625 nM
[12] = target: T1, human OX40 on cells (CHO-hOX40, …); test: flow cytometry, CHO-hOX40, 0.1953125 nM
[13] = target: T1, human OX40 on cells (CHO-hOX40, …); test: flow cytometry, CHO-hOX40, 0.09765625 nM
[14] = target: T1, human OX40 on cells (CHO-hOX40, …); test: flow cytometry, CHO-hOX40, 0.024414063 nM
[15] = target: T1, human OX40 on cells (CHO-hOX40, …); test: flow cytometry, CHO-hOX40, 0.048828125 nM
[16] = target: T1, human OX40 on cells (CHO-hOX40, …); test: cell-based or functional assay
[17] = target: T1, human OX40 on cells (CHO-hOX40, …); test: flow cytometry, CHO-hOX40, 100 nM; remark: listed apart in the source
[18] = target: T2, human OX40_Fc (R&D Systems) (human, UniProt P43489 29-216); test: BLI, IgG1 on tip, hOX40-Fc 50 nM, avid
T2 construct: Bought

[19] = target: T3, cyno OX40_Fc (Acro Biosystems) (cyno); test: BLI, IgG1 on tip, cyno OX40-Fc 100 nM, avid
T3 construct: Bought

[20] = target: T4, mouse OX40Fc (Acro Biosystems) (mouse, UniProt P47741 20-211, limits assumed); test: BLI, IgG1 on tip, mouse OX40-Fc 100 nM, avid
T4 construct: Bought; not shown: Fc
T4 sequence (looked up): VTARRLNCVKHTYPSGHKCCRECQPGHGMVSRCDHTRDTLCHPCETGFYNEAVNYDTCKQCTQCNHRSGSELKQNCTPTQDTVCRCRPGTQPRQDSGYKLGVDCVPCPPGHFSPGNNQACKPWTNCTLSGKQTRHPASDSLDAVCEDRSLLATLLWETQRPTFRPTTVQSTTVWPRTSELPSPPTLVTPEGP

[21] = target: T1, human OX40 on cells (CHO-hOX40, …); test: flow cytometry, MFI on CHO-hOX40 over wild-type CHO

- EC50 [1]: 8.37 nM
- MFI [2]: 2.16e+06 MFI
- MFI [3]: 1.59e+06 MFI
- MFI [4]: 2.39e+06 MFI
- MFI [5]: 2.55e+06 MFI
- MFI [6]: 1.52e+06 MFI
- MFI [7]: 1.06e+06 MFI
- MFI [8]: 660000 MFI
- MFI [9]: 334000 MFI
- MFI [10]: 188000 MFI
- MFI [11]: 101000 MFI
- MFI [12]: 49500 MFI
- MFI [13]: 28200 MFI
- MFI [14]: 14600 MFI
- MFI [15]: 15400 MFI
B1: Hu106-222 (IgG2) (antibody, V domains shown)
VH: QVQLVQSGSELKKPGASVKVSCKASGYTFTDYSMHWVRQAPGQGLKWMGWINTETGEPTYADDFKGRFVFSLDTSVSTAYLQISSLKAEDTAVYYCANPYYDYVSYYAMDYWGQGTLVTVSS
VL: DIQMTQSPSSLSASVGDRVTITCKASQDVSTAVAWYQQKPGKAPKLLIYSASYLYTGVPSRFSGSGSGTDFTFTISSLQPEDIATYYCQQHYSTPRTFGQGTKLEIK

- EC50, NFkB-luciferase reporter in Jurkat-hOX40 mixed with Raji cells [16]: 0.174 nM
- CHO-OX40 binding intensity (MFI) [17]: 181000 MFI
- Kd [18]: 0.273 nM
- Kd [19]: 1.09 nM
- Kd [20]: 8.98 nM
- Fold difference [21]: 1550 fold
B2: ADI-23515, IgG1 format (antibody)
heavy: not shown
light: EIVLTQSPGTLSLSPGERATLSCRASQSVSSSYLAWYQQKPGQAPRLLIYGASSRATGIPDRFSGSGSGTDFTLTISRLEPEDFAVYYCQQSERSPFTFGGGTKVEIKRTVAAPSVFIFPPSDEQLKSGTASVVCLLNNFYPREAKVQWKVDNALQSGNSQESVTEQDSKDSTYSLSSTLTLSKADYEKHKVYACEVTHQGLSSPVTKSFNRGEC
notes: Made in yeast or CHO cells; also called ADI-23515-g1
